Measurements: a protein production outcome set (Wang et al. 2014)

Experiment: label from the status in PepcDB records

| Sequence | protein production |
| --- | --- |
| MKIESAQIIELPKILDKRGNLSIIEEFKNIPFKIERTYWIYDVPGGESRGGHAYRENEEFIVALSGSFDVVLDDGNNKKIFSLNRSYYGLYVPKGLWREMNNFSTNSLALILSSTVYEEKDYIRDYNEFLKMKRKLEHHHHHH | failed |
| MKVDDTEEASQKPEDILAQGKDEARLSLEERRKLFQSKGLSAEESLVSVSTEDTLFQKEEDSKVYPLSMTWSFGWNSSLPVYYMREDRRVILYTCAHTAIMYDVVRNTQYHLQGHPNIISCLCVSEDRRWIATADEGPDCLIIIWDSFTGIPVHTIFDSCPEGNGMRSIAITRDSKFLATISDSATQKVCIWKWTLAVETPACTLELPKEYGFQDNLVFNPANNKELVSNSKTQAIYYCWFEDKGILAHSAPVLTEKTFNKLVGKFSQSVFHLKLPQVLSATKEGKLVVWDIHYPSSTSSSAISAFPFIKPRKLVHLQKEAITVLMTIDSYIVTGDIKGNIKFYDHTLSVVNWYSNFKLGAIRTLSFSKTIPSLPTEKSNLPTDCTLRGDLFVVRNFIIGTFDATVYHMTVDGTKLEKLFVEPRDAVYAVSCHPYQPLIAVGSVCGMIKVWDFEKKVYLFSRTFEKGLGVQCLTYNPEGALLGAGFTEGTVYILDAMSLENESPEPFKYSKSSVSHCCFSHDSNYMATADVNFTVAVYMVVVKNGQRVWEYLARLRSHQNSIQSLLFGVHLDSNEPRLLSLGKDRFLIEYNLVKSCKDHLDVLDVHRTDQGNYPTCMIWYPPLTKELFLLICNSGYKVKLFNATTKMCRKTLLGPAYGSPIEHAQVLPVKSTLELQKRYLVFINKDKVGLQILPVDGNPHKTCAIVCHPNGVAGMALSYDGRFAFTAGGQDRSVVQWKINLGALEAAVSLGGEDLTPFYGLVSGGREGKFYRELEDYFYYSQIRSQGIDTMETRQVSEHICLSELPFVMRAIGFYPSEEKIEDMFNEIKFSEYVETGKLIDKINLPDFLKVYLNHRPPFGNTMDGIQNSFNVLGYTNSEGKKAIRREDFLNLLLTKGEHMTEEEMIDCFSTLFGLTPEGWKSEPAATCINGPEICLQKELPEEITAEIFTTEILGLTLSDSSEQLIQ | failed |
| MCQTCLSWYARCVAPYFVHAGCSAGAFSQMRRRVIPRAEGVVVEVGFGSGLNLPYYDAARVERLVGIDPDGTMLGLAAPKSRAMPFAVECIRAGGESLPLADGIADTVVVTYAFCTIPDPQAALSEIRRVLKPRGRLIFIEHGQAEGPRGRRWQQRLNRLWGSIAGGCHLNRDPLRLIGGAGFRLLEVQHGRFPLPLWQLGSHHAGIAAAG | failed |
| MESTKSYDIPILRNVSRSFSVHYRDYLQRCGIFVPKEGNSSGPDAYVVFHNGQTRYVVGFSFKFYHKSEFSKRNIEEEAKKFFKGVVSVLNDESFSSVQLRFQFVMVVCTSYGRSVVFSSEEQNIVEDASYLVTEHSSGSTLNESSRSCLQLVIVSQRNLEMYLGRDNVETLRKIGEASREEFSKDFSVWCETVFESMSNEYVSPLEQSNVTLRVARNIRPRTNEENRMQIEELQTAMKVERSVAASSSLSSSFDWNTFLREYCGLSEEDVAYCLPKVEDIDMDELPAVTKEILRDLGIDKPALRLKIRSSIRSYLANER | not failed |
| MHRFFATRTSRIISVVLSLTFLAGCSLSEIDRIERQTKDSGEIARRISDTNRAKAQPAVRWMDKPWVSLKPLAPVVANPEEKILPPCQITINRPDGMNLPELGQRITGLCGPRVTITPDAFLVLSPANVRSGTSQQMPGSLPAPDGHGRVSLPYLGAQSPSASVMKQSDKHISTLKWQGDLPGLLDTIGSRLGLSWRVNKGNIVFYQLDTRMFQLVILNTKISSSASVTSGSSSSIGSSGGTNSGVSGESSSAQKTSVDLNSDLYGDIKKTIENMLTPSKGRFWLSSASGTLTVTDTPETLERIGRYIDYQNELLNRQVQLNVQVLSVTQSRKEQFGLDWKLVYQSLNNIGASVTGNLINAADNAFSGGLSILDTATGPAAKFSGSELLIKALSQQGNVSLVTELNRATINLTPVPFQISDQTGYIQSSSTTATANAGTTSSMQTGIITTGLFMSMLPYIQENGDVQLQFAFTLSDKPTIQPFFSRDGNTRTDTPAFKLRSLTQTVNMRAGQTLVLTGADQLDSVANKQGAFTPGNFLFGGGHVGSDTRTTLVILITPVLLR | failed |
| MLCLHAPSRCEAAPAFPHTYSHYSEQEQLTALLADFGRTQGLATSFSPGVTGTVSGRFEDVAPEKFLQGMKAAFGVSWYRLGPTLHFYHEAETTRIFISPRVMSAESLYRMLRQSSVLSPQLPAELMPGGAMVVVSGPPAYLDQIQAAVTAFEEAQTGNFGMKVFPLKYAWAEDITVNSMDKTVTLPGVASILRAMVSGSPSSATRVTQETATVDKLSGTGLISQGRQQKESGQSNQAQRGGQASQQDSGGAQDGQQVSIMADPRVNAVIVHDAVYRMPYYESVIGDLDRPVELVEIHAAIVDIDTNFKRDLGVTYQATVGKDQRWAGGADVSTGTDKFTPLPVPGVPQGSGLTLSTIYTMGSDYFLARINALEKNGEARMLGRPSVLTVDNVQATLENTSTYYIQVQGYQAVDLFKVEAGTVLRVTPHIINNDDGTDAIKLVVSVQDDQNNQTTPTSTSTTQAIPPIKQTKINTQAIIGAGQSLLIGGYYYEQKATSADGVPILMNIPVLGNLFKTQSKENKRMERLILITPKVVRLDNLPGTPPRVDDPAFHRTATQSDYAERTPTPPPSRRSGCSRAPDNAPEAASGAAGGTGGTGVTANTEGGTTPQAATSPVPAYGVAP | failed |
| MNNPQDYSHKECLKASLLETFGFDGFRPGQEQTITQLLKGQSSLSIFPTGSGKSLCYQLTALHLPHLTLVVSPLLALMKDQLSFLASKGIKAASIDSTLKGNEAQTVMAGVRDGDIKVLMVSVERFKNERFRQFIESVPVSMLVVDEAHCISEWGHNFRPDYLKLPSYCQALNISLVLLLTATATRKVKQDMAAKFAIRDEHIVQTGFYRSNLDLSVLPVTQAHKNKQLEQIISAQQGAGIVYVTLQHSAETVAQYLKQQGINACAYHAGFDSDTRSQIQQDFMAGKIQVIVATIAFGMGIDKSNIRFVIHYDLPKSIENYSQEIGRAGRDGLPSQCFTLANLDGLNTVENFVYGDTPEFTGIEMLLNTIKSEVITSTHVGISDNRSEGKWELQILQLSNAVNIKQLPLKTLLVQLELAGVIEPLYAYFADFKIKLLKPKAEIINSFNDQRKDFLQRIFNATDFKKVWGSLNFDTLLQDQSIERNRVIAALEYLQEQQLIVLETKGMTEVFNIKLNELADPSLCQTLSNYFKDNEEKEIKRIATLVRFFQLDTCLTVNLARYFDDTSFDDKRFDGNSSDNNSLDSARNSGTVPQCGHCSVCRGQVAVLEHSQAQIPWPSDEALKQGMTELAERLSGKINQPLSIESFCRFFAGMSVPLFGRNKVRQLSGFGVCEQQRYQAILEKLASLSK | failed |
| MHLSRCRKCGRVMKGERIDPYRVKLTCSCGFSDFRTMTEKVKTVNPFFQKGGFSPLLESERGKMVLTMQRANREHLEIISLEEISMLVSSDFDLPEVLQHVTAKVATQLKVSVCNIYLREGDEVVLAATHGFDPAFIGKIRIKIGDGITGSVARDGQYISLSRASQDPRYRYFPELQEEKYNSMLSFPIGDKKEVYGVINLNTTSIRSFHEDEIYFVSIIANLILTAIKLRQQVASSRKAAEASA | failed |
| MSYSKEVNRYVFPLVATNLVQVLIGQISLHFAVDNSNAALSGISVIQNFLFAFGGILGAFSLSFNIRGAKAFYNKEYQRFKNLLKSSLLIDIGIGLSFILFCLGLSRPFLKVFYGFDGQLLELSTTYFKIMSPYILLTLLIFLFSNLLKIEKKTKPIFWIGTLSSVLDVLLNYYLVPLLGIRGAAISSILSLLVIVLGYFIFVKSLVFQALQEASTSKLELIRFGIPLSIQEILESVLFIMAFDAFMGRQGLRILSIYAVVSQLFAIVRTPAFMYAGSIAIFLPEARKKEDEKALIATIFRNSYAVIFIFACLVTVFSNPFAHFLSDEVIDNVLPFTLYTVVVMGATPLYESSKMLLQSNDDEQWVLKITSIVNILSILILLVLQLMGKQTYQSLYGIYGLSLIVLSILFIKRNSEKRVSSRKMTM | failed |
| MSLTPTVMVVDESRITFLAVKNALEKDGFNVIWAKNEQEAFTFLRREKIDLVFVDVFEGEESLNLIRRIREEFPDTKVAVLSAYVDKDLIINSVKAGAVDYILKPFRLDYLLERVKKIISSTPRVTVSLRKNIEEGHHHHHH | not failed |
| RTSYLEFNQRDKNSPYNNVNLRKAISAAIDRNALVDKILGDGSVVATGLIPEGMSYSPTDDTDFADENKKIVEYSPEKAKEYWAKAKKELGITTLKMDIVADDVDSTKKLAEYIQGTLKDTLEGIDVTVSPVPFSVRIDRGSRGDFETILGGWAADYADPSSFLDLFVTGNNYNRGRFSSKAYDELIEASATRDASDPEKRWEDMVKAEKLLIGEETALAPLYQKA | failed |
| DNAMEEEIQSIMKIERDLFLAIKNKEFVIHYQPKVDSSTGNIIGSEALIRWLHPSLGMVGPNKFIPIAEKNGLINNIGRWLIQEVFITINKWISEGINVLPVSINLSRVELYKNDLVDFFKLMFNTYNIPKELIELEITETTALRDVKFISERLYEIKSLGMNISLDDFGVGNSNFINLKGIPLDIIKIDRSLILDIVTNTKTKFMVKAIVNLSHDLNVTVICEGVEDMHQVKVLSELGCNFIQGYVFFKP | failed |
| GLINTHAHVGMSASKGLFDDVDLDSFLKKTFEYDSDRTSTGIFNSAKLGMYEMIGNGITAFVDLYYSEDIIAKAAEEIGIRAFLSWVTLDKELTTQIGDPVENAENFIRNHVGNKYVVPSVGVQGIYVANDDTFRRAMDLAEKYGTILHMHLSETRKEVYDAVKKLGERPIEHLHNIGILNKRVLAAHCVWATYHEVRLLSKDGVNVSWNSISNFKLGTGGIPPIPEMMRENVNVTIGTDSNGSNNSLDMFQAMKFSAISVKNYRWDASLMKAQEILDMATRNAARALQLNAG | failed |
| MKKLPLVFSGCLLGLAGAGNLILDTLPVLSHLFSLIGLVLWIYFLILHLFNWKETKQELTKPPLLSGMATFPMAGMILSTYVFRVFSYLPLVAQGIWWFSFLLDLTLIAGFTIKFACPGRRVHATPSWTVLYVGIAVAALTYPLVGIIEIAYATLSFGFLLTFYLYPLIYSDLKKHPLPLALLGQEGIYCAPFSLLLASLVRVGGTSLPTWVLIVMILASQSFFFFVLTRLPNILKQGFQPAFSALTFPTIITATSLKMAQGILKLPFLDYLVLAETIICLTILFFVLGAYLIWLRKKV | failed |
| MLDTYGRKYVNPIIDLGANTLLKLRLTPNGVSIIALIIGVLSSVFLYFDKLILSVVFLWISGYLDSVDGAMARKKNLTSPFGTLLDITFDRIVELSIIFVLALKFQNSRLYLLILTMMILISMTIFLTVGALAQNNGMKSFRYQAGLAERSEGFICFSLMILLSSIKLNLVTNIFSLIIFITIIQRALEAKRLLK | failed |
| MYVIIMGAGRIGTLVAKMLENSGHDVAIIEMNKDRARAVSDIVSGLVIEGDATDQNILESANVRNADAFVALTGKDDANILACILAKHLNPRIMTILRITDPRKKKIFEEVKDLKKYFDVVVSPEDIAANYIFRVVITPGFDRVLLPREGAEIIQFHIDENSKVAGKAVKDLNLPRDSLIIAIYDEKGNLIIPSGETILPKRGTVVVFAKDSALKEIKKIMEEKVEESEE | failed |
| MNQVEMTEFPVGKPEEALYGVASTPDGALWFTLAKGNAIGRLSPDGEVSRFPLPHADGQPTTITCGPDGRPWFTLSSANAVGRLSPDGALRMFELPRPASRPFGIAAGHDGCLWFAEMAGDRIGRITIDGDIEEYDLPVKGGYPSCMAAGRDGLMWFTLNQAGAIGSISATAAPRIFPLGAADAAPVGIASDAQGALWIAQAGNGAIARFDAGGRITEFPLHSRAARPHALAADAAGNLWFTEWGANRIGRISEAGDTAGYELAAPGSEPHGIAIDPHGCVWAALETGSLVRLQASPRD | failed |
